US7253271 (REGENTS OF THE UNIVERSITY OF MICHIGAN, dated 2007)

Key:
[1] = biological target: T1, human ClC-Kb chloride channel (human, UniProt P51801 1-687); test: inferred from co-expression (currents, colocalisation); no direct binding assay
T1 construct: whole, on cells; Expressed from cRNA in Xenopus oocytes or from cDNA in tsA201 cells; also called CIC-Kb; CLCNKB
T1 sequence (looked up): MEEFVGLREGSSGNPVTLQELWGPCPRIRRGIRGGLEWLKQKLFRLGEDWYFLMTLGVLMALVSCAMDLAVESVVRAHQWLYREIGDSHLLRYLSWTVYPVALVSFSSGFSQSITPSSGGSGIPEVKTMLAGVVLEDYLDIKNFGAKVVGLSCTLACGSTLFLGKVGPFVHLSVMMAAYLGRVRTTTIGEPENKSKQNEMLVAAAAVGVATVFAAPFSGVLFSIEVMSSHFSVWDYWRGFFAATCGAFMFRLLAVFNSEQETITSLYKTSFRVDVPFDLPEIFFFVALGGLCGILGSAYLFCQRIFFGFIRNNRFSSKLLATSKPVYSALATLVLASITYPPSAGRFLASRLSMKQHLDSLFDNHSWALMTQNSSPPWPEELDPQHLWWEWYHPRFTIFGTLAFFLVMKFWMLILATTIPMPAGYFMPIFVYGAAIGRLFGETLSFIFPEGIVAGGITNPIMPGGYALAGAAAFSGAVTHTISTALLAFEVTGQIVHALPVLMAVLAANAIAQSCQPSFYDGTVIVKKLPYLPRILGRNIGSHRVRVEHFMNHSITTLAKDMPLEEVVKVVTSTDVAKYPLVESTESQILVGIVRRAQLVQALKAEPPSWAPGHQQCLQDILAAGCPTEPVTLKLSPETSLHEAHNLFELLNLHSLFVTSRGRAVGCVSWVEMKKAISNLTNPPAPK

[2] = biological target: T2, human ClC-Ka chloride channel (human, UniProt P51800 1-687); test: inferred from co-expression (currents, surface expression, colocalisation); no direct binding assay
T2 construct: whole, on cells; Expressed from cRNA in Xenopus oocytes or from cDNA in tsA201 cells; also called CIC-Ka; CLCNKA
T2 sequence (looked up): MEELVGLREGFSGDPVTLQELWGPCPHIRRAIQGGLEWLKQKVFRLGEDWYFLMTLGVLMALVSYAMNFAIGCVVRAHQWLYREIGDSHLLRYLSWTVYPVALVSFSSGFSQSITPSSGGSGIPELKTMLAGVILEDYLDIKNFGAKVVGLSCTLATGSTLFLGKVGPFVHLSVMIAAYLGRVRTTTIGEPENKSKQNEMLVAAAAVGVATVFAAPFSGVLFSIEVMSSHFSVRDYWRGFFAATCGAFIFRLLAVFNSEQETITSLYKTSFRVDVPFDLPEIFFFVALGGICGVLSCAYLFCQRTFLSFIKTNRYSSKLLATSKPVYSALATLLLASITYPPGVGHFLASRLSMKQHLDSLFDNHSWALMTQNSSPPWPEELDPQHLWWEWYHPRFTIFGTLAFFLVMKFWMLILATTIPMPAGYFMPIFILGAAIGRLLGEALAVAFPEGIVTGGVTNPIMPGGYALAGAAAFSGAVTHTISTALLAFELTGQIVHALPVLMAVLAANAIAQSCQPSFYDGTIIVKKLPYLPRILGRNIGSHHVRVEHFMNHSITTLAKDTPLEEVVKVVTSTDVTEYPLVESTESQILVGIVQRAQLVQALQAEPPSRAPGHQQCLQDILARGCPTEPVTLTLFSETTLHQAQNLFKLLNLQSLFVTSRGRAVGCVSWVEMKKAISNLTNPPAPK

B1: barttin (BSND protein), wild type, human (other)
chain: MADEKTFRIGFIVLGLFLLALGTFLMSHDRPQVYGTFYAMGSVMVIGGIIWSMCQCYPKITFVPADSDFQGILSPKAMGLLENGLAAEMKSPSPQPPYVRLWEEAAYDQSLPDFSHIQMKVMSYSEDHRSLLAPEMGQPKLGTSDGGEGGPGDVQAWMEAAVVIHKGSDESEGERRLTQSWPGPLACPQGPAPLASFQDDLDMDSSEGSSPNASPHDREEACSPQQEPQGCRCPLDRFQDFALIDAPTLEDEPQEGQQWEIALPNNWQRYPRTKVEEKEASDTGGEEPEKEEEDLYYGLPDGAGDLLPDKELGFEPDTQG
notes: Expressed in Xenopus oocytes, tsA201 cells or other transfected cells
binding result [1]: binds | binding result [2]: binds
